Laboratory results taken from paper PMC10197580.

Biological target: T1, CST with the His6-MBP tag cleaved (human), Q2NKJ3
T1 chain 1: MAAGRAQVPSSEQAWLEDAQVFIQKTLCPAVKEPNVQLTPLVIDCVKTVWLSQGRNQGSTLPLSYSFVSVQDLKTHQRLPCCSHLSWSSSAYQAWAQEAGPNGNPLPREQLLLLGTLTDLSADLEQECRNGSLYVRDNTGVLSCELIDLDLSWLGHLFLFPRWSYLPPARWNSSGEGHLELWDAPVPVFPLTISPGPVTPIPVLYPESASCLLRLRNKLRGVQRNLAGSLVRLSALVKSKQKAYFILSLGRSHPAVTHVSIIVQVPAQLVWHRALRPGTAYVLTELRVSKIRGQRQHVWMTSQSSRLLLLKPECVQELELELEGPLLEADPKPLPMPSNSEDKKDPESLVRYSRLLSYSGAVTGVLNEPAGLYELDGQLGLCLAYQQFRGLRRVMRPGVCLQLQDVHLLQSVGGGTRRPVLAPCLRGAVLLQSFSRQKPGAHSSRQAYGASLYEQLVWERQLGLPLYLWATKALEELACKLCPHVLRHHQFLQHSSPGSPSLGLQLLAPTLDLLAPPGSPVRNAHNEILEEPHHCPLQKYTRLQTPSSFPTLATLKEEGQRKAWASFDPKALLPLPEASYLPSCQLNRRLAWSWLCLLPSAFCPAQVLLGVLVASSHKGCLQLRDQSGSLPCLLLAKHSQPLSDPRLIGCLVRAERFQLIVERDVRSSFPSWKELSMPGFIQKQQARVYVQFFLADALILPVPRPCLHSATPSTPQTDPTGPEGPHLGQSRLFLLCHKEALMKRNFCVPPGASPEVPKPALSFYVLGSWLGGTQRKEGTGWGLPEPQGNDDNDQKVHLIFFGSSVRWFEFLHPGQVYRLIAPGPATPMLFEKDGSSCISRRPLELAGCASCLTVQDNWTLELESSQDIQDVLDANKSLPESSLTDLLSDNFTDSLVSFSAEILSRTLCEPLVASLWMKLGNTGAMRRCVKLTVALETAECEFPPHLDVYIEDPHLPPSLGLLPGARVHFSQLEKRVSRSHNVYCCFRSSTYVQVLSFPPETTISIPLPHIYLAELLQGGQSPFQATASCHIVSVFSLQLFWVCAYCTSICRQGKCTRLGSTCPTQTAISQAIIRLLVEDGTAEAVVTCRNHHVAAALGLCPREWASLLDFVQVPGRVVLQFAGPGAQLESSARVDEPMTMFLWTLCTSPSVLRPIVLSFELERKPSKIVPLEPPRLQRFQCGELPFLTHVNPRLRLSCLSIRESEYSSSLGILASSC
T1 chain 2: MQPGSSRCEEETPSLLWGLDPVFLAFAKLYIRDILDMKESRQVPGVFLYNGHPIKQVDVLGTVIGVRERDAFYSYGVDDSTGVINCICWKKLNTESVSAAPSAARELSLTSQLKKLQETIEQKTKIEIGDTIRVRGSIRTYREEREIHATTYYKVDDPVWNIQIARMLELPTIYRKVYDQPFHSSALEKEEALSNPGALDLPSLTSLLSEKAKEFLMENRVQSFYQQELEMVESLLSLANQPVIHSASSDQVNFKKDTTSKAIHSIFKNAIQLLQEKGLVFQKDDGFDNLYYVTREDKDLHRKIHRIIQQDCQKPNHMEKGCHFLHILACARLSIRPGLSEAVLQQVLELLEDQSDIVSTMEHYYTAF
T1 chain 3: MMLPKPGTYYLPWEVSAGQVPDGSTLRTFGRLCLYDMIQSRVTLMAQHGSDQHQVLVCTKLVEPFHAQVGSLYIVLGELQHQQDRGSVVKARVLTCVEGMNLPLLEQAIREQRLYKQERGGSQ
Assay: negative-stain EM
Conditions: remark: other sources report otherwise

stoichiometry N: 2
B1: CST with the His6-MBP tag cleaved, Q2NKJ3;Q9H668;Q86WV5 (complex)
chain 1: MAAGRAQVPSSEQAWLEDAQVFIQKTLCPAVKEPNVQLTPLVIDCVKTVWLSQGRNQGSTLPLSYSFVSVQDLKTHQRLPCCSHLSWSSSAYQAWAQEAGPNGNPLPREQLLLLGTLTDLSADLEQECRNGSLYVRDNTGVLSCELIDLDLSWLGHLFLFPRWSYLPPARWNSSGEGHLELWDAPVPVFPLTISPGPVTPIPVLYPESASCLLRLRNKLRGVQRNLAGSLVRLSALVKSKQKAYFILSLGRSHPAVTHVSIIVQVPAQLVWHRALRPGTAYVLTELRVSKIRGQRQHVWMTSQSSRLLLLKPECVQELELELEGPLLEADPKPLPMPSNSEDKKDPESLVRYSRLLSYSGAVTGVLNEPAGLYELDGQLGLCLAYQQFRGLRRVMRPGVCLQLQDVHLLQSVGGGTRRPVLAPCLRGAVLLQSFSRQKPGAHSSRQAYGASLYEQLVWERQLGLPLYLWATKALEELACKLCPHVLRHHQFLQHSSPGSPSLGLQLLAPTLDLLAPPGSPVRNAHNEILEEPHHCPLQKYTRLQTPSSFPTLATLKEEGQRKAWASFDPKALLPLPEASYLPSCQLNRRLAWSWLCLLPSAFCPAQVLLGVLVASSHKGCLQLRDQSGSLPCLLLAKHSQPLSDPRLIGCLVRAERFQLIVERDVRSSFPSWKELSMPGFIQKQQARVYVQFFLADALILPVPRPCLHSATPSTPQTDPTGPEGPHLGQSRLFLLCHKEALMKRNFCVPPGASPEVPKPALSFYVLGSWLGGTQRKEGTGWGLPEPQGNDDNDQKVHLIFFGSSVRWFEFLHPGQVYRLIAPGPATPMLFEKDGSSCISRRPLELAGCASCLTVQDNWTLELESSQDIQDVLDANKSLPESSLTDLLSDNFTDSLVSFSAEILSRTLCEPLVASLWMKLGNTGAMRRCVKLTVALETAECEFPPHLDVYIEDPHLPPSLGLLPGARVHFSQLEKRVSRSHNVYCCFRSSTYVQVLSFPPETTISIPLPHIYLAELLQGGQSPFQATASCHIVSVFSLQLFWVCAYCTSICRQGKCTRLGSTCPTQTAISQAIIRLLVEDGTAEAVVTCRNHHVAAALGLCPREWASLLDFVQVPGRVVLQFAGPGAQLESSARVDEPMTMFLWTLCTSPSVLRPIVLSFELERKPSKIVPLEPPRLQRFQCGELPFLTHVNPRLRLSCLSIRESEYSSSLGILASSC
chain 2: MQPGSSRCEEETPSLLWGLDPVFLAFAKLYIRDILDMKESRQVPGVFLYNGHPIKQVDVLGTVIGVRERDAFYSYGVDDSTGVINCICWKKLNTESVSAAPSAARELSLTSQLKKLQETIEQKTKIEIGDTIRVRGSIRTYREEREIHATTYYKVDDPVWNIQIARMLELPTIYRKVYDQPFHSSALEKEEALSNPGALDLPSLTSLLSEKAKEFLMENRVQSFYQQELEMVESLLSLANQPVIHSASSDQVNFKKDTTSKAIHSIFKNAIQLLQEKGLVFQKDDGFDNLYYVTREDKDLHRKIHRIIQQDCQKPNHMEKGCHFLHILACARLSIRPGLSEAVLQQVLELLEDQSDIVSTMEHYYTAF
chain 3: MMLPKPGTYYLPWEVSAGQVPDGSTLRTFGRLCLYDMIQSRVTLMAQHGSDQHQVLVCTKLVEPFHAQVGSLYIVLGELQHQQDRGSVVKARVLTCVEGMNLPLLEQAIREQRLYKQERGGSQ
